This note sets out measurements from paper PMC3234234, “A Host Small GTP-binding Protein ARL8 Plays Crucial Roles in Tobamovirus RNA Replication” (PLoS Pathogens, 2011).

For assay [1], the target named is AtARL8a-Cub-PLV (split-ubiquitin bait) (Arabidopsis thaliana) (UniProt Q8VY57). As to the kind of experiment: two-hybrid; split-ubiquitin assay in yeast reporter strain L40; Cub-PLV fusion as bait, NubG fusion as prey; beta-galactosidase activity (Miller units).
Assay [2] concerns the target T1, AtTOM1-Cub-PLV (split-ubiquitin bait) (Arabidopsis thaliana, UniProt Q9FEG2 1-291).
T1 construct: Arabidopsis thaliana TOM1, seven-pass transmembrane protein; source: yeast two-hybrid fusion (split-ubiquitin, reporter strain L40); not shown: Cub-PLV, C-terminal, kept
T1 sequence (looked up): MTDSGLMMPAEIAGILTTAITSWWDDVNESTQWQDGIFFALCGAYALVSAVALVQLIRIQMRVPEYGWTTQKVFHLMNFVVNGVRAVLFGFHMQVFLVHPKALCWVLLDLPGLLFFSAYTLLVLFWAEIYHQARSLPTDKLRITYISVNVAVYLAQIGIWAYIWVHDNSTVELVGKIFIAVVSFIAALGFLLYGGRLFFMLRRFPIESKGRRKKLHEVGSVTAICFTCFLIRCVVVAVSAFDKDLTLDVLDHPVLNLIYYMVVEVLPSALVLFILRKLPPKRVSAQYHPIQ
The description is as above. To be noted: partners not purified.

“NubG-HEL: helicase domain polypeptide of ToMV replication proteins (residues 648-1116 of the 130K protein) (domain or fragment)”: in assay [1], the fold weaker signal (beta-galactosidase) than the TOM1-helicase domain pair is 13 times weaker.

B1: AtARL8a-NubG (split-ubiquitin prey) (natural protein, Arabidopsis thaliana, UniProt Q8VY57 1-184, looked up)
chain: MGLLEAFLNWLRSLFFKQEMELSLIGLQNAGKTSLVNVVATGGYSEDMIPTVGFNMRKVTKGNVTIKLWDLGGQPRFRSMWERYCRAVSAIVYVVDAADPDNLSVSKSELHDLLSKTSLNGIPLLVLGNKIDKPGALSKEALTDEMGLTSLTDREVCCFMISCKNSTNIDQVIDWLVKHSKSKN
notes: Arabidopsis thaliana ARL8a; 'a DNA fragment corresponding to the AtARL8a-coding region' put in place of TOM1 in pTN-TOM1-NubG; also called ARL8-NubG; source: yeast two-hybrid fusion (split-ubiquitin, reporter strain L40); not shown: NubG, C-terminal, kept
For B1, in assay [2], the “fold weaker signal (beta-galactosidase) than the TOM1-helicase domain pair” value turned out to be 6 times weaker.
